Our source for the FVIII binding (%) values is US20110092681A1.

Values joined by “and” are separate entries in the source; they are usually repeats but may differ in a detail not shown here. Identical values can stand only once.

The experiment addresses rFVIII (recombinant Factor VIII) (UniProt P00451). As to the kind of experiment: ELISA chromogenic assay (ECA): rFVIII incubated with rVWF, complex captured on anti-VWF antibody, bound FVIII read by chromogenic assay. (In general: In an ELISA, binding on a coated surface is turned into a signal by an enzyme label.)

As to “human recombinant VWF (rVWF) (from UniProt P04275 764-2813)”, the FVIII binding (%) is 51.7% and 64.6% and 63.1%.
